Laboratory results reported in US10654939 (BEIJING MABWORKS BIOTECH, dated 2020).
Numbering of substitutions follows the chain as printed.

T1: rhesus CD40 expressed on HEK293A cells (rhesus monkey, UniProt P25942 21-277 (human entry))
T1 construct: also called HEK293A/rhesusCD40
T1 chain: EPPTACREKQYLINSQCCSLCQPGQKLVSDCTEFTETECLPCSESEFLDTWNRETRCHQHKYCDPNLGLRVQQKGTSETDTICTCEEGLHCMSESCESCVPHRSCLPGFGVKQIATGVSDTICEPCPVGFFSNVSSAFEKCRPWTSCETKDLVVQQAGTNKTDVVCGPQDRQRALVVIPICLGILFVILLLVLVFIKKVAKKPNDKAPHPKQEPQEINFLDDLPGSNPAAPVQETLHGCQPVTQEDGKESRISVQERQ

B1: chimeric 77D9 antibody (antibody, human IgG2, kappa, V domains shown)
VH: QVKLEESGGGLVKPGGSLKLSCAASGFTFRNYAMSWVRQSPGERLEWVAEVSGSGYYTYYPDTVTGRFTISRDNANNTLYLEVSSLRSEDTAMYYCTSRAYWGQGTLVTVSA
VL: IVMTQSPTLSLPVSLGDQASISCRSSQSIVLTNGNTYLEWYLQRPGQSPKLLIYKVSNRFSGVPDRFSGSGSGTDFTLKISRVEAEDLGVYYCFQGSHVPYTFGGGTKLEIKR
notes: Mouse variable regions with human IgG2/kappa constant regions
B2: chimeric 142F7 antibody (antibody, human IgG2, kappa, V domains shown)
VH: EVQLEQSGAELVRPGTSVKVSCKASGYAFTNYLIEWGIQRPGQGLEWIGVINPGTGGTNYNEKFKDKATLTTDKSSSTAYMQLSSLTSDDSAVYFCARGGSGFAYWGQGTLVTVSA
VL: DIVLTQTTSSLSASLGDRVTISCRASQDINNYLNWYQQKPDGTVKLLIYYTSRLHSGVPSRFSGSGSGTDYSLTISNLEQEDIATYFCQQGNTLPWTFGGGTKLEIKR
notes: as for B1
B3: chimeric 29A10 antibody (antibody, human IgG2, kappa, V domains shown)
VH: QVKLEQSGGGLVKPGGSLKLSCAASGFTFSHYYMYWVRQTPEKRLEWVATISDAGSYTYYSDSVKGRFTISRDNAKNNLYLQMSSLKSDDTAMYFCARTYYRGDGGYWFFDVWGAGTAVTVSS
VL: DIVITQSTSSLAVSVGEKVTMSCESSQSLLYSSNQKNYLAWYQQKPGQSPKLLIYWASTRESGVPDRFTASGSGTDFTLTISSVKAEDLAVYYCQQYYRSPLTFGAGTKLELKR
notes: as for B1
B4: chimeric 7B4 antibody (antibody, human IgG2, kappa, V domains shown)
VH: EVQLQESGPGLVKPSQSLSLTCSVTGYSITTNYYWNWIRQFPGNKLEWMGYIKYDGSNNYNPSLKNRISITRDTSKNQFFLKLNSVTTEDTATYYCARLDYWGQGTSVTVSS
VL: DIVLTQSPLSLPVSLGDQASISCRSSQSLENSNGNTFLNWFLQKPGQSPQLLIYKVSNRFSGVLDRFSGTGSGTDFTLTISRVEAEDLGVYFCLQVTHVPFTFGSGTKLEIKR
notes: as for B1
B5: chimeric 16A6 antibody (antibody, human IgG2, kappa, V domains shown)
VH: B4 VH with Q5E, E6Q, Y34H
VL: B4 VL with P8T, P12S, F76L
notes: as for B1
B6: chimeric 50F6 antibody (antibody, human IgG2, kappa, V domains shown)
VH: QVQLEQSGDDLVKPGASVKLSCKASGYTFTTYWINWIKQRPGQGLEWIGRISPGSGSTHYNEMFKGKATLTVDTSSSTAYIQLSSLSSEDSAVYFCTRNDYWGQGTTLTVSS
VL: DIVLTQSPLSLPVSLGDQASISCRSSQSIVNSNGNTYLEWYLQKPGQSPKLLIYKVSNRFSGVPDRFSGSGSGTDFTLKISRVEAEDLGVYYCFQGSHVPLTFGAGTKLELKR
notes: as for B1
B7: chimeric 92F6 antibody (antibody, human IgG2, kappa, V domains shown)
VH: QVQLEQSGAEVVKPGASVKVSCTASGFNIKDTYMHWVKQRPEQGLEWIGRIDPANGNTNYDPKFQGKATITADTSSNTGYLQLSSLTSEDTAVYYCSRWGYDWYFDVWGAGTSVTVSS
VL: DIVITQSTAIMSASPGEKVTITCSASSSVSYIHWFQQKPGTSPKLWIYTTANLASGVPARFSGSGSGTSYSLTISRMEAEDAATYYCQQRSNYPFTFGSGTKLEIKR
notes: as for B1
B8: 13A2-VH2VL2 (antibody, human IgG2, kappa, V domains shown)
VH: QVQLQESGPGLVKPSDTLSLTCAVSGYSITTNYYWNWIRQPPGKGLEWMGYINYDGSNNYNPSLKNRITISVDTSKNQFSLKLSSVTAVDTAVYYCARLDYWGQGTLVTVSS
VL: DVVLTQSPLSLPVTLGQPASISCRSSQSLENSNGNTFLNWFQQRPGQSPRLLIYKVSNRFSGVPDRFSGSGSGTDFTLKISRVEAEDVGVYYCLQVTHVPFTFGQGTKLEIKR
notes: Humanized, human IgG2/kappa
B9: 7B4-VH3VL3 (antibody, human IgG2, V domains shown)
VH: B8 VH with K44N, G45K, N53K
VL: B8 VL with Y92F, Q105S
notes: Humanized, human IgG2/kappa
B10: 7B4-VH2VL3 (antibody, human IgG2, kappa, V domains shown)
VH: B8 VH with N53K
VL: B8 VL with Y92F, Q105S
notes: Humanized, human IgG2/kappa
B11: 7B4-VH3VL2 (antibody, human IgG2, V domains shown)
VH: B8 VH with K44N, G45K, N53K
VL: B8 VL
notes: Humanized, human IgG2/kappa
B12: 7B4-VH0VL0 (antibody, human IgG2, kappa, V domains shown)
VH: B8 VH with M49I, N53K, I68V, I70M
VL: B8 VL with L4M, L51R
notes: Humanized, human IgG2/kappa
B13: 13A2-VH0VL0 (antibody, human IgG2, kappa, V domains shown)
VH: B8 VH with M49I, I68V, I70M
VL: B8 VL with L4M, L51R
notes: Humanized, human IgG2/kappa
B14: 13A2-VH2VL3 (antibody, human IgG2, kappa, V domains shown)
VH: B8 VH
VL: B8 VL with Y92F, Q105S
notes: Humanized, human IgG2/kappa

biological target: T2, mouse CD40 expressed on HEK293A cells (mouse, UniProt P27512 20-289); assay: FACS, HEK293A/mouseCD40 cells
T2 construct: also called HEK293A/mouseCD40
T2 sequence (P27512 20-289 limits assumed): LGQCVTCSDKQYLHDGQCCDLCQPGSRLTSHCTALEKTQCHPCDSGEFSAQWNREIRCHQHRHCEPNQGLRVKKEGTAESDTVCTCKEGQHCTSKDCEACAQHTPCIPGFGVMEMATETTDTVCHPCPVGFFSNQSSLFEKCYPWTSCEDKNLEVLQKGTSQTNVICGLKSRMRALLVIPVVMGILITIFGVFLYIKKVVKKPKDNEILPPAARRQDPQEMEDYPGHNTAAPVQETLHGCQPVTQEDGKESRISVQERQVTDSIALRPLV

Binder	binding result
B1	no binding
B2	no binding
B3	no binding
B4	no binding
B5	no binding
B6	no binding
B7	no binding

biological target: T3, recombinant human CD40 (ECD)-his (human, UniProt P25942 21-193); assay: SPR (Biacore 8K), hCD40(ECD)-his coupled to chip, antibody injected
T3 construct: Bought protein; also called hCD40(ECD)-his; TNFRSF5
T3 sequence (P25942 21-193): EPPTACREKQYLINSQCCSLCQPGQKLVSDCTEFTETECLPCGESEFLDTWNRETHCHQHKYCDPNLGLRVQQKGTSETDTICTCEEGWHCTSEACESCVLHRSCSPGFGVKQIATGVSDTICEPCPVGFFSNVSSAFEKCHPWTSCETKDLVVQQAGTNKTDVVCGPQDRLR
Description: SPR assays were used to determine the binding affinity of the chimetic or humanized anti-CD40 antibodies to human CD40 with the BIAcore™ 8K instrument (GE Life Sciences). Briefly, 100-200 response units (RU) of human CD40 (ECD)-his protein (Sino Biological, CN, Cat #: 10774-H08H) were coupled to CM5 biosensor chips (Cat #: BR-1005-30, GE Life Sciences), followed by blocking of un-reacted groups with 1M ethanolamine. Serially diluted antibodies at concentrations ranging from […] were injected into the SPR running buffer (HBS-EP buffer, pH7.4, GE Life Sciences; US; Cat #: BR-1006-69) at 30 μL/minute. The binding capacity was calculated with the RUs of blank controls subtracted. The association rate (k_a) and dissociation rate (k_d) were calculated using the one-to-one Langmuir binding model (BIA Evaluation Software, GE Life Sciences). The equilibrium dissociation constant K_D was calculated as the k_d/k_a ratio.

Binder	Kd	koff	kon
B4	3.6 nM	0.0036 s⁻¹	1e+06 M⁻¹ s⁻¹
B8	2.08 nM	0.00171 s⁻¹	823000 M⁻¹ s⁻¹
B9	2.99 nM	0.00488 s⁻¹	2.13e+06 M⁻¹ s⁻¹
B10	3.6 nM	0.00639 s⁻¹	1.78e+06 M⁻¹ s⁻¹
B11	4.2 nM	0.00615 s⁻¹	1.46e+06 M⁻¹ s⁻¹
B12	2.47 nM	0.0068 s⁻¹	2.75e+06 M⁻¹ s⁻¹
B13	28.8 nM	0.0114 s⁻¹	396000 M⁻¹ s⁻¹
B14	3.55 nM	0.00261 s⁻¹	735000 M⁻¹ s⁻¹

Biological target: T1, rhesus CD40 expressed on HEK293A cells
Assay: FACS on HEK293A/rhesus CD40 cells, serially diluted antibody (Example 14, protocol of Example 5)
Description: Example 5 Mouse Anti-CD40 Monoclonal Antibodies Bound to Human and Rhesus CD40 Expressed on HEK293A Cells To further determine whether anti-CD40 antibodies bound to human, monkey or mouse CD40 expressed on HEK293A cells, a cell-based binding assay by FACS was performed using the HEK293A cells stably overexpressing human, monkey or mouse CD40 as generated in Example 1, respectively. Briefly, 10^5 HEK293A cells were seeded into each well of the 96-well plates and serially diluted anti-CD40 antibodies were added to the plates. After incubated at 4° C. for 1 hour, plates were washed 3 times with PBST. Then, an APC coupled Goat Anti-Mouse IgG (BioLegen, US, Cat #: 405308) diluted 500× was added to the plates. After incubation at 4° C. for 1 hour, the plates were washed with PBS for 3 times and then cell fluorescence was monitored using a FACS machine (BD).
The chimeric and humanized anti-CD40 antibodies were further characterized for their ability of binding to HEK293A/humanCD40 cells and HEK293A/rhesus CD40 cells, following the protocols described in Example 5. They were also tested for their ability to activate CD40 signaling in HEK-Blue assay, and to promote dendritic cell maturation, following the protocols in Example 7 and Example 9, respectively, the dendritic cells collected form three healthy human donors. IL-12(p40) secretion by the dendritic cells was measured by using human IL12(p40) ELISA kit (BD, US, Cat #: 551116) following themanufactor's instruction.

Binder	binding result	EC50 (read off the curve)
B8	binds	
B9		~0.2 µg/mL
B10		~0.2 µg/mL
B11		~0.2 µg/mL
B12		~0.2 µg/mL
B13	binds	
B14	binds	
